[ ]: non-standard residue; d: D form. QSY7 = QSY-7 (maleimide) on Cys; βAla = NCCC(=O)O
T1: human SEP (Homo sapiens, UniProt Q495T6)
T1 construct: The full length human SEP clone was termed MSSE82; made in house; host or cells: CHO cells transfected with plasmid MSSE82; dialysed culture medium used as enzyme
T1 sequence (Q495T6 75-779 limits assumed): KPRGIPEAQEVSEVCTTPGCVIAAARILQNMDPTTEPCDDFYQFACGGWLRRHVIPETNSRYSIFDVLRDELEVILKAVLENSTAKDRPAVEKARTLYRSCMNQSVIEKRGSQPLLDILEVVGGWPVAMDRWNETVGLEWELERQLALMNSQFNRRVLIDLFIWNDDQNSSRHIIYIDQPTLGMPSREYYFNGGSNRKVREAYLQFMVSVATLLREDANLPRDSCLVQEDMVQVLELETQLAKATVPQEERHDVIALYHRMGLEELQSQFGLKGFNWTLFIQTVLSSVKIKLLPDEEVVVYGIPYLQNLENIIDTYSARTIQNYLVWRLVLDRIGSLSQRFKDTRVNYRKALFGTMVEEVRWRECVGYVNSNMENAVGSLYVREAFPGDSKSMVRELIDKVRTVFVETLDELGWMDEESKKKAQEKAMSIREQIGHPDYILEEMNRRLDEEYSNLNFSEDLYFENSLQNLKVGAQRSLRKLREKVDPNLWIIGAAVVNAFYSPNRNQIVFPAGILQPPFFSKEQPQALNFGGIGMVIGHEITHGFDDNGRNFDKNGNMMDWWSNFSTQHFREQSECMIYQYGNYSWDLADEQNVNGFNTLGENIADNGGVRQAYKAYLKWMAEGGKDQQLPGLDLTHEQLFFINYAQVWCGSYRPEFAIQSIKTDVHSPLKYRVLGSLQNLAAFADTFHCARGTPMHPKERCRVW

T2: mouse SEP (Mus musculus, UniProt Q9JLI3)
T2 sequence (Q9JLI3 1-765): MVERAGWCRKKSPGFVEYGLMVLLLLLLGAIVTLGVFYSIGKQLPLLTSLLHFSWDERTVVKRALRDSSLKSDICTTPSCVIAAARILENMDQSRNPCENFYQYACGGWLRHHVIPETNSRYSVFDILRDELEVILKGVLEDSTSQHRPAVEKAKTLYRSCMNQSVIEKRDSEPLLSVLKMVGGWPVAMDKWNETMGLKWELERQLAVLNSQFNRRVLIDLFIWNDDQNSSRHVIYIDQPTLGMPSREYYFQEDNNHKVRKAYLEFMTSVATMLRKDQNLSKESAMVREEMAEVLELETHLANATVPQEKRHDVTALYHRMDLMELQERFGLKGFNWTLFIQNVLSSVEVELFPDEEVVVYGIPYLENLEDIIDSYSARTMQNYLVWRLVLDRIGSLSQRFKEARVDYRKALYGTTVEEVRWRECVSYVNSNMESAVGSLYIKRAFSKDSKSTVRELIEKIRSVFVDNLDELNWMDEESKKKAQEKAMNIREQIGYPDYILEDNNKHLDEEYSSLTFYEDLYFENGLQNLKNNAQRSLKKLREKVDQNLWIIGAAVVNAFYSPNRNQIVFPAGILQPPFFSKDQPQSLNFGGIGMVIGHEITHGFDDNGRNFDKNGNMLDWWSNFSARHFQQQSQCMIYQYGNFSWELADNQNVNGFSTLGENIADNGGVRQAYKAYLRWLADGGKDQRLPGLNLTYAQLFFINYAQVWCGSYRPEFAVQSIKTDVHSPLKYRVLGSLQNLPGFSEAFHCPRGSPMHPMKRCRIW

T3: Rhodamine green-Gly-Gly-dPhe-Leu-Arg-Arg-Val-Cys(QSY7)-betaAla-NH2
T3 chain: GGFLRRVCA


How the values were obtained:
[1] = biological target: T4, Recombinant human NEP enzyme (Homo sapiens, UniProt P08473); test: NEP FRET assay (384 well, homogeneous); format: biochemical; details: steady state kinetics of NEP enzyme with the peptide substrate
T4 construct: made in house; host or cells: Pichia pastoris
T4 sequence (P08473 whole entry): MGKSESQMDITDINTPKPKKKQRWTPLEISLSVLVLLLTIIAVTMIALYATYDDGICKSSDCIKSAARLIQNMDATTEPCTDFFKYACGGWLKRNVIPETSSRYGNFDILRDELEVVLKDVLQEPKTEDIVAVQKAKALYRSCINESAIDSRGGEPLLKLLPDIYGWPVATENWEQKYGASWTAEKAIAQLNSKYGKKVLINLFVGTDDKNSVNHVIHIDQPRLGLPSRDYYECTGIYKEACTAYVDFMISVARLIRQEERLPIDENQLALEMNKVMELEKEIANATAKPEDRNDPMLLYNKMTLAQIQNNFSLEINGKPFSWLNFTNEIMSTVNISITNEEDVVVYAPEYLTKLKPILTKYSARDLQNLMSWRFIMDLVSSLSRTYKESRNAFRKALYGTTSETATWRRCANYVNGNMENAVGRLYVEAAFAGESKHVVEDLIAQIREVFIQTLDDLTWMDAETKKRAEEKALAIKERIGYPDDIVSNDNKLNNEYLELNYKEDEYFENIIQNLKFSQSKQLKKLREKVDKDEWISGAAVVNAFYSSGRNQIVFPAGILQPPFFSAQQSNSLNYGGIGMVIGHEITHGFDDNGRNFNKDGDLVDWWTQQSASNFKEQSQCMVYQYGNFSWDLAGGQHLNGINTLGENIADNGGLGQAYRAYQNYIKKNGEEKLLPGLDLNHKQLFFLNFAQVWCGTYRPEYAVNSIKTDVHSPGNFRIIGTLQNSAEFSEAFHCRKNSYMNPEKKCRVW
Description: All assays were conducted in 384 well black, flat bottom plates, purchased from Matrix Technologies Ltd. (Cheshire, UK).
Compounds for screening were supplied as singles at 40 μM in 1% DMSO to achieve a final screening concentration of 10 μM.
The peptide substrate (Rhodamine green-Gly-Gly-dPhe-Leu-Arg-Arg-Val-Cys(QSY™7)-βAla-NH2) (SEQ ID NO: 8) was made as described above and labelled with fluorophores purchased from Molecular Probes, Inc. All other reagents were purchased from Sigma/Aldrich (Poole, Dorset, UK).
Recombinant human NEP enzyme was expressed using Pichia pastoris and purified to homogeneity using a three-step purification procedure.
All assays were performed in 50 mM Hepes buffer pH 8, 0.1% v/v pluronic-F127 and 1% v/v protease inhibitor cocktail (antipain, aprotinin, leupeptin, pepstatin A). 10 μl of compound in 1% DMSO was added to each well, followed by 20 μl of recombinant enzyme (10 nM final concentration). The reaction was initiated by the addition of 10 μl of substrate (1 μM final concentration) and plates were incubated at 25° C. for one hour. Termination of the reaction was achieved by the addition of 20 μl of Stop (excess of a known inhibitor) to a concentration of 10 μM in the well. Plates were counted using Tecan Ultra (485 nm excitation, 535 nm emission; Tecan Austria, Salzburg, Austria). […]

human SEP = biological target: T1, human SEP; test: human SEP activity, sensitivity to inhibitors; format: biochemical
Description: The enzymatic (proteolytic) activity of human SEP protein can be measured in an assay involving, for example, mixing a sample of the human SEP enzyme with a substrate peptide in a buffer solution (for example 50 mM HEPES; pH 7.4), incubating the mixture for a period of time (such as 1-3 hours) enough for human SEP to act to cleave a measurable portion of the peptide substrate to a product at a temperature suitable for SEP activity (typically 30-37° C.).
The effect of candidate human SEP inhibitor compounds or control test compounds such as phosphoramidon and thiorphan that may alter the activity of human SEP can be measured in this type of assay by including them in the initial mixture at a range of suitable test concentrations, typically 0.1 nM to 50 μM.
To determine the IC50 of SEP inhibitors (SEPi; for example, phosphoramidon), multiple SEP assays are performed as described above with a range of test concentrations of inhibitor included in the 50 μl of DMSO solution (made by appropriate dilution of a 10 mM 100% DMSO stock of inhibitor with 4% DMSO/50 mM HEPES pH7.4.). Using a suitable standard graph fitting computer program, a sigmoidal dose response curve is fitted to a plot of log inhibitor concentration versus MaxV (or % inhibition or % activity). The IC50 is calculated as the inhibitor concentration causing 50% maximal inhibition. […]

mouse SEP = biological target: T2, mouse SEP; details: cited from earlier work
[2] = biological target: T3, Rhodamine …

Row | Molecule | sensitivity of human SEP to inhibitor (human SEP) | sensitivity of mouse SEP to inhibitor (mouse SEP) | cleavage of the FRET substrate, monitored by fluorescence [2] | also measured
1 | Rhodamine green-Gly-Gly-dPhe-Leu-Arg-Arg-Val-Cys(QSY™7)-βAla-NH2 ({Rhodamine green}-GG[dF]LRRVC(QSY7)[βAla]-NH2) [CP4] |  |  |  | Kcat [1]: 0.083 s⁻¹; Km ([1]; 50 mM Hepes pH 8, 25° C.): 8 µM
2 | O=C(O)CNC(=O)C(CS)Cc1ccccc1 (centres unmarked) [thiorphan] | sensitive | sensitive |  | 
3 | CC(C)C[C@H](NP(=O)(O)O[C@@H]1O[C@@H](C)[C@H](O)[C@@H](O)[C@H]1O)C(=O)N[C@@H](Cc1c[nH]c2ccccc12)C(=O)O [phosphoramidon] | sensitive | sensitive |  | 
4 | Recombinant human NEP enzyme (neutral endopeptidase, neprilysin, EC 3.4.24.11) (protein) DDGICKSSDCIKSAARLIQNMDATTEPCTDFFKYACGGWLKRNVIPETSSRYGNFDILRDELEVVLKDVLQEPKTEDIVAVQKAKALYRSCINESAIDSRGGEPLLKLLPDIYGWPVATENWEQKYGASWTAEKAIAQLNSKYGKKVLINLFVGTDDKNSVNHVIHIDQPRLGLPSRDYYECTGIYKEACTAYVDFMISVARLIRQEERLPIDENQLALEMNKVMELEKEIANATAKPEDRNDPMLLYNKMTLAQIQNNFSLEINGKPFSWLNFTNEIMSTVNISITNEEDVVVYAPEYLTKLKPILTKYSARDLQNLMSWRFIMDLVSSLSRTYKESRNAFRKALYGTTSETATWRRCANYVNGNMENAVGRLYVEAAFAGESKHVVEDLIAQIREVFIQTLDDLTWMDAETKKRAEEKALAIKERIGYPDDIVSNDNKLNNEYLELNYKEDEYFENIIQNLKFSQSKQLKKLREKVDKDEWISGAAVVNAFYSSGRNQIVFPAGILQPPFFSAQQSNSLNYGGIGMVIGHEITHGFDDNGRNFNKDGDLVDWWTQQSASNFKEQSQCMVYQYGNFSWDLAGGQHLNGINTLGENIADNGGLGQAYRAYQNYIKKNGEEKLLPGLDLNHKQLFFLNFAQVWCGTYRPEYAVNSIKTDVHSPGNFRIIGTLQNSAEFSEAFHCRKNSYMNPEKKCRVW |  |  | CP4 is cleaved by endopeptidases NEP or SEP, creating the cleavage product Rhodamine green-Gly-Gly-dPhe-Leu-Arg-Arg-OH | Kcat [2]: 0.083 s⁻¹; Kcat/Km [2]: 10,500 M^-1 S^-1; Km [2]: 8 µM
5 | human soluble secreted endopeptidase (human SEP), recombinant (protein) RKPRGIPEAQEVSEVCTTPGCVIAAARILQNMDPTTEPCDDFYQFACGGWLRRHVIPETNSRYSIFDVLRDELEVILKAVLENSTAKDRPAVEKARTLYRSCMNQSVIEKRGSQPLLDILEVVGGWPVAMDRWNETVGLEWELERQLALMNSQFNRRVLIDLFIWNDDQNSSRHIIYIDQPTLGMPSREYYFNGGSNRKVREAYLQFMVSVATLLREDANLPRDSCLVQEDMVQVLELETQLAKATVPQEERHDVIALYHRMGLEELQSQFGLKGFNWTLFIQTVLSSVKIKLLPDEEVVVYGIPYLQNLENIIDTYSARTIQNYLVWRLVLDRIGSLSQRFKDTRVNYRKALFGTMVEEVRWRECVGYVNSNMENAVGSLYVREAFPGDSKSMVRELIDKVRTVFVETLDELGWMDEESKKKAQEKAMSIREQIGHPDYILEEMNRRLDEEYSNLNFSEDLYFENSLQNLKVGAQRSLRKLREKVDPNLWIIGAAVVNAFYSPNRNQIVFPAGILQPPFFSKEQPQALNFGGIGMVIGHEITHGFDDNGRNFDKNGNMMDWWSNFSTQHFREQSECMIYQYGNYSWDLADEQNVNGFNTLGENIADNGGVRQAYKAYLKWMAEGGKDQQLPGLDLTHEQLFFINYAQVWCGSYRPEFAIQSIKTDVHSPLKYRVLGSLQNLAAFADTFHCARGTPMHPKERCRVW |  |  | CP4 is cleaved by endopeptidases NEP or SEP, creating the cleavage product Rhodamine green-Gly-Gly-dPhe-Leu-Arg-Arg-OH | 
